The results in this text go back to EP1451343B1.

The target in this assay is mouse BRCA1 protein (mouse) (UniProt P48754). The experiment in a line: cell-based or functional assay.
Chain of UniProt P48754 (P48754 whole entry): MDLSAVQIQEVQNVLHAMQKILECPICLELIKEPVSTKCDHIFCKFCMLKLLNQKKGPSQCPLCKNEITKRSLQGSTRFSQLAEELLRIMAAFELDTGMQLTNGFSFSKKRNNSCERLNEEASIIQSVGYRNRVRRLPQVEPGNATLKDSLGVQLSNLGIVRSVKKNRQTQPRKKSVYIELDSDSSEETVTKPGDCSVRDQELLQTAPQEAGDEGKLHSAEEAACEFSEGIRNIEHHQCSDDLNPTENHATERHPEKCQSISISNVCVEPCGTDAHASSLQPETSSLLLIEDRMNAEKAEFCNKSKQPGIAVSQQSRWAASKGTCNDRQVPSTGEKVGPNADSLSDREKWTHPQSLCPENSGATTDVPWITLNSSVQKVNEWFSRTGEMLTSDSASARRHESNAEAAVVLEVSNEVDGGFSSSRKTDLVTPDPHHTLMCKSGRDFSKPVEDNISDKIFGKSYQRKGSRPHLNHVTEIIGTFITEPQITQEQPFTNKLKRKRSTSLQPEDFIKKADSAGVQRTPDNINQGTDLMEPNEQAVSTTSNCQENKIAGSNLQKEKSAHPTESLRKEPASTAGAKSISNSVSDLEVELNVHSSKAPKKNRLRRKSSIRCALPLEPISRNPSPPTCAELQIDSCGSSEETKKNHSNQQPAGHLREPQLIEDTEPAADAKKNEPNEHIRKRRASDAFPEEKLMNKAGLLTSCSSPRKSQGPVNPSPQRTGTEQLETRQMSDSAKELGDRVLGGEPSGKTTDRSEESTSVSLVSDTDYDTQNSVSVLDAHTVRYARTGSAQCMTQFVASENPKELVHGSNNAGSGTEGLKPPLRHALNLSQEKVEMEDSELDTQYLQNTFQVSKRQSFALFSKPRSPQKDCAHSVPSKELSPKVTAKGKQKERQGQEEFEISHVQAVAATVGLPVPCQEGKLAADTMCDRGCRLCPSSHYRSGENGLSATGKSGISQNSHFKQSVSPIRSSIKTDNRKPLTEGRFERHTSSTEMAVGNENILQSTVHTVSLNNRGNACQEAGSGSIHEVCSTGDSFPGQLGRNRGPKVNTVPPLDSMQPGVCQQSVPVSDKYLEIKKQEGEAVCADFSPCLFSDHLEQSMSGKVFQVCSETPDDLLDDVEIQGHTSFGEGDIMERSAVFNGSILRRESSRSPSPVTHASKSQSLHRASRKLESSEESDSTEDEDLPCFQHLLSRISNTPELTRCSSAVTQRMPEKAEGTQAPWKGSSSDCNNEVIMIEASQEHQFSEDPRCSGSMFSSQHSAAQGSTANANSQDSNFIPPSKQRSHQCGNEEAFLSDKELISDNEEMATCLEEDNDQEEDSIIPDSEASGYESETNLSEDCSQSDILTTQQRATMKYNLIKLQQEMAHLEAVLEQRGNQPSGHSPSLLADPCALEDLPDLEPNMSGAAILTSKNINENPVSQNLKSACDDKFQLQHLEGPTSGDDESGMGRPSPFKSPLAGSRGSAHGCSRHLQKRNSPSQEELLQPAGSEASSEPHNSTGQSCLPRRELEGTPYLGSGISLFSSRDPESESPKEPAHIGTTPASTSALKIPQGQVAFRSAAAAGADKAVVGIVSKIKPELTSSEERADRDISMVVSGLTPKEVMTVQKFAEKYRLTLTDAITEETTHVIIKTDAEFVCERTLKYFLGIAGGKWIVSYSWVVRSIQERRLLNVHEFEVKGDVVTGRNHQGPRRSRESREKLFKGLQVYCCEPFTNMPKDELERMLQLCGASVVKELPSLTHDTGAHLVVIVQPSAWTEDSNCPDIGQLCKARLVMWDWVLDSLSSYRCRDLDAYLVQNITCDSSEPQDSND

“mouse FANCD2 protein (from UniProt Q80V62 1-1450)” had an anti-FANCD2 foci co-localized with regions of intense anti-BRCA1 staining (20 pachytene nuclei of mouse spermatocytes) of 65%.
